Data on 1 molecule can be found in PMC6191937 (Cell, 2018).

The test concerns the target T1, EGFP-MOV10 (human, UniProt Q9HCE1 1-1003).
T1 sequence: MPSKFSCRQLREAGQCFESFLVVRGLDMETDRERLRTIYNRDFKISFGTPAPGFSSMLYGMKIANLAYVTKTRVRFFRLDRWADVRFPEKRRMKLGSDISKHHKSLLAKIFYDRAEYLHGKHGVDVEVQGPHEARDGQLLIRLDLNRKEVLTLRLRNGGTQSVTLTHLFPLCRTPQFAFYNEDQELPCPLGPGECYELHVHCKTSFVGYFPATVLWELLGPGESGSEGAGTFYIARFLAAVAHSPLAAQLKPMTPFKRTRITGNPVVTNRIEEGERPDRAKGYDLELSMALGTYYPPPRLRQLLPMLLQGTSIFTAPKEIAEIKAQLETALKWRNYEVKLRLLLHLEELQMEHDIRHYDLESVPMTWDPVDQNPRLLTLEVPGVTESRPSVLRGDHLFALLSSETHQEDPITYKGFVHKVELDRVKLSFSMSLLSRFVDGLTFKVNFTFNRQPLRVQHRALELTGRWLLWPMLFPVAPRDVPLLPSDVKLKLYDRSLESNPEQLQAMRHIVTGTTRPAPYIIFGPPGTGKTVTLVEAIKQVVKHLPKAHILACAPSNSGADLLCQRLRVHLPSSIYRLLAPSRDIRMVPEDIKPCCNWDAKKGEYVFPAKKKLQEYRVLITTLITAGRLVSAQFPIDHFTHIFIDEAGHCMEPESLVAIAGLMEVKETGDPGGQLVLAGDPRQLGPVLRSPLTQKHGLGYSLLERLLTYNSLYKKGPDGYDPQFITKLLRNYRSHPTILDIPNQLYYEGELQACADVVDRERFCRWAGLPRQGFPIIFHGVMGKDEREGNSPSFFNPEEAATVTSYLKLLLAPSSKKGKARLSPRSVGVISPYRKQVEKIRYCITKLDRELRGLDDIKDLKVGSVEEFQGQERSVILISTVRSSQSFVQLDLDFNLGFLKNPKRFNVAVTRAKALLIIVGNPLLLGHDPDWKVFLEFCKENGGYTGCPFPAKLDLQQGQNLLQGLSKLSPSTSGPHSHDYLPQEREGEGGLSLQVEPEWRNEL
Kind of test: co-IP.

B1: TUT4 (natural protein)
chain: MEESKTLKSENHEPKKNVICEESKAVQVIGNQTLKARNDKSVKEIENSSPNRNSSKKNKQNDICIEKTEVKSCKVNAANLPGPKDLGLVLRDQSHCKAKKFPNSPVKAEKATISQAKSEKATSLQAKAEKSPKSPNSVKAEKASSYQMKSEKVPSSPAEAEKGPSLLLKDMRQKTELQQIGKKIPSSFTSVDKVNIEAVGGEKCALQNSPRSQKQQTCTDNTGDSDDSASGIEDVSDDLSKMKNDESNKENSSEMDYLENATVIDESALTPEQRLGLKQAEERLERDHIFRLEKRSPEYTNCRYLCKLCLIHIENIQGAHKHIKEKRHKKNILEKQEESELRSLPPPSPAHLAALSVAVIELAKEHGITDDDLRVRQEIVEEMSKVITTFLPECSLRLYGSSLTRFALKSSDVNIDIKFPPKMNHPDLLIKVLGILKKNVLYVDVESDFHAKVPVVVCRDRKSGLLCRVSAGNDMACLTTDLLTALGKIEPVFIPLVLAFRYWAKLCYIDSQTDGGIPSYCFALMVMFFLQQRKPPLLPCLLGSWIEGFDPKRMDDFQLKGIVEEKFVKWECNSSSATEKNSIAEENKAKADQPKDDTKKTETDNQSNAMKEKHGKSPLALETPNRVSLGQLWLELLKFYTLDFALEEYVICVRIQDILTRENKNWPKRRIAIEDPFSVKRNVARSLNSQLVYEYVVERFRAAYRYFACPQTKGGNKSTVDFKKREKGKISNKKPVKSNNMATNGCILLGETTEKINAEREQPVQCDEMDCTSQRCIIDNNNLLVNELDFADHGQDSSSLSTSKSSEIEPKLDKKQDDLAPSETCLKKELSQCNCIDLSKSPDPDKSTGTDCRSNLETESSHQSVCTDTSATSCNCKATEDASDLNDDDNLPTQELYYVFDKFILTSGKPPTIVCSICKKDGHSKNDCPEDFRKIDLKPLPPMTNRFREILDLVCKRCFDELSPPCSEQHNREQILIGLEKFIQKEYDEKARLCLFGSSKNGFGFRDSDLDICMTLEGHENAEKLNCKEIIENLAKILKRHPGLRNILPITTAKVPIVKFEHRRSGLEGDISLYNTLAQHNTRMLATYAAIDPRVQYLGYTMKVFAKRCDIGDASRGSLSSYAYILMVLYFLQQRKPPVIPVLQEIFDGKQIPQRMVDGWNAFFFDKTEELKKRLPSLGKNTESLGELWLGLLRFYTEEFDFKEYVISIRQKKLLTTFEKQWTSKCIAIEDPFDLNHNLGAGVSRKMTNFIMKAFINGRKLFGTPFYPLIGREAEYFFDSRVLTDGELAPNDRCCRVCGKIGHYMKDCPKRKSLLFRLKKKDSEEEKEGNEEEKDSRDVLDPRDLHDTRDFRDPRDLRCFICGDAGHVRRECPEVKLARQRNSSVAAAQLVRNLVNAQQVAGSAQQQGDQSIRTRQSSECSESPSYSPQPQPFPQNSSQSAAITQPSSQPGSQPKLGPPQQGAQPPHQVQMPLYNFPQSPPAQYSPMHNMGLLPMHPLQIPAPSWPIHGPVIHSAPGSAPSNIGLNDPSIIFAQPAARPVAIPNTSHDGHWPRTVAPNSLVNSGAVGNSEPGFRGLTPPIPWEHAPRPHFPLVPASWPYGLHQNFMHQGNARFQPNKPFYTQDRCATRRCRERCPHPPRGNVSE
Turning to B1, the “fold enrichment in the co-IP relative to TUT7” value was ~10 fold.
